Source: the supplement of paper PMC9112550, “Optimization of the antimicrobial peptide Bac7 by deep mutational scanning” (BMC Biology, 2022)
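Also: peptides expressed intracellularly from a pBAD plasmid library in pooled LB shake-flask culture, induced with 0.3% L-arabinose, DNA abundance read by NGS, three biological replicates, DESeq2 with apeglm shrinkage.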

What follows are sequences tested on Escherichia coli TOP10 (assay: shrunken log2 fold change of peptide-encoding DNA abundance (4.5 h post-induction vs induction); higher = less antimicrobial activity (less host growth inhibition)). Conditions: time post-induction: 4.5 h; library: site-saturation at positions 5, 18, 19, 20.
RRIRRRPPRLPRPRPRPRPKPRP was tested, and the “shrunken log2 fold change” value was 1.05. RRIRRRPPRLPRPRPRPRPPPRP was tested, and the “shrunken log2 fold change” value was 0.931. RRIRRRPPRLPRPRPRPRQGPRP was tested, and the “shrunken log2 fold change” value was 0.298. RRIRRRPPRLPRPRPRPRQYPRP was tested, and the “shrunken log2 fold change” value was -0.191. In the case of RRIRRRPPRLPRPRPRPRRGPRP, the “shrunken log2 fold change” value is reported as 0.788. RRIRRRPPRLPRPRPRPRSEPRP was tested, and the “shrunken log2 fold change” value was 0.342. For RRIRRRPPRLPRPRPRPRTRPRP, the “shrunken log2 fold change” value was 0.528. With RRIRRRPPRLPRPRPRPRTSPRP the “shrunken log2 fold change” value was 0.108. For RRIRRRPPRLPRPRPRPRTTPRP, the “shrunken log2 fold change” value was 0.406. In the case of RRIRRRPPRLPRPRPRPRVCPRP, the “shrunken log2 fold change” value is reported as 0.89. With RRIRRRPPRLPRPRPRPRVHPRP the “shrunken log2 fold change” value was 0.264. For RRIRRRPPRLPRPRPRPRWAPRP, the “shrunken log2 fold change” value was 0.206. RRIRRRPPRLPRPRPRPRWIPRP was tested, and the “shrunken log2 fold change” value was 0.356. With RRIRRRPPRLPRPRPRPRWSPRP the “shrunken log2 fold change” value was 0.498. For RRIRRRPPRLPRPRPRPRYKPRP, the “shrunken log2 fold change” value was -0.0686. In the case of RRIRRRPPRLPRPRPRPSAHPRP, the “shrunken log2 fold change” value is reported as -0.0606. RRIRRRPPRLPRPRPRPSCKPRP was tested, and the “shrunken log2 fold change” value was -0.398. RRIRRRPPRLPRPRPRPSCYPRP was tested, and the “shrunken log2 fold change” value was -0.0677. With RRIRRRPPRLPRPRPRPSDIPRP the “shrunken log2 fold change” value was -1.08. In the case of RRIRRRPPRLPRPRPRPSEEPRP, the “shrunken log2 fold change” value is reported as 0.125. With RRIRRRPPRLPRPRPRPSEKPRP the “shrunken log2 fold change” value was 0.51. For RRIRRRPPRLPRPRPRPSFDPRP, the “shrunken log2 fold change” value was 0.135. In the case of RRIRRRPPRLPRPRPRPSFRPRP, the “shrunken log2 fold change” value is reported as -0.0185. RRIRRRPPRLPRPRPRPSGGPRP was tested, and the “shrunken log2 fold change” value was 0.318. In the case of RRIRRRPPRLPRPRPRPSHEPRP, the “shrunken log2 fold change” value is reported as -0.252. In the case of RRIRRRPPRLPRPRPRPSHWPRP, the “shrunken log2 fold change” value is reported as 0.183. In the case of RRIRRRPPRLPRPRPRPSIRPRP, the “shrunken log2 fold change” value is reported as -0.219. For RRIRRRPPRLPRPRPRPSKCPRP, the “shrunken log2 fold change” value was -0.47. RRIRRRPPRLPRPRPRPSKKPRP was tested, and the “shrunken log2 fold change” value was 0.144. RRIRRRPPRLPRPRPRPSLPPRP was tested, and the “shrunken log2 fold change” value was 0.44. With RRIRRRPPRLPRPRPRPSMAPRP the “shrunken log2 fold change” value was -0.142. RRIRRRPPRLPRPRPRPSPAPRP was tested, and the “shrunken log2 fold change” value was 0.868. For RRIRRRPPRLPRPRPRPSPIPRP, the “shrunken log2 fold change” value was 0.11. RRIRRRPPRLPRPRPRPSPWPRP was tested, and the “shrunken log2 fold change” value was 0.335. With RRIRRRPPRLPRPRPRPSQAPRP the “shrunken log2 fold change” value was 0.113. In the case of RRIRRRPPRLPRPRPRPSQCPRP, the “shrunken log2 fold change” value is reported as 0.0735. In the case of RRIRRRPPRLPRPRPRPSSDPRP, the “shrunken log2 fold change” value is reported as 0.0273. For RRIRRRPPRLPRPRPRPSVMPRP, the “shrunken log2 fold change” value was 0.157. For RRIRRRPPRLPRPRPRPTCPPRP, the “shrunken log2 fold change” value was 0.415. In the case of RRIRRRPPRLPRPRPRPTDGPRP, the “shrunken log2 fold change” value is reported as 0.0329. RRIRRRPPRLPRPRPRPTDHPRP was tested, and the “shrunken log2 fold change” value was -0.235. In the case of RRIRRRPPRLPRPRPRPTEDPRP, the “shrunken log2 fold change” value is reported as 0.477. RRIRRRPPRLPRPRPRPTFIPRP was tested, and the “shrunken log2 fold change” value was -0.0768. With RRIRRRPPRLPRPRPRPTFTPRP the “shrunken log2 fold change” value was 0.128. In the case of RRIRRRPPRLPRPRPRPTFYPRP, the “shrunken log2 fold change” value is reported as 0.191. RRIRRRPPRLPRPRPRPTGRPRP was tested, and the “shrunken log2 fold change” value was 0.489. In the case of RRIRRRPPRLPRPRPRPTHSPRP, the “shrunken log2 fold change” value is reported as 0.775. For RRIRRRPPRLPRPRPRPTIQPRP, the “shrunken log2 fold change” value was 0.144. RRIRRRPPRLPRPRPRPTKGPRP was tested, and the “shrunken log2 fold change” value was 0.244. For RRIRRRPPRLPRPRPRPTLEPRP, the “shrunken log2 fold change” value was 0.607. In the case of RRIRRRPPRLPRPRPRPTNMPRP, the “shrunken log2 fold change” value is reported as -0.0659. RRIRRRPPRLPRPRPRPTRQPRP was tested, and the “shrunken log2 fold change” value was 1.33. With RRIRRRPPRLPRPRPRPTRTPRP the “shrunken log2 fold change” value was 0.681. In the case of RRIRRRPPRLPRPRPRPTTYPRP, the “shrunken log2 fold change” value is reported as -0.221. With RRIRRRPPRLPRPRPRPTVKPRP the “shrunken log2 fold change” value was 0.106. RRIRRRPPRLPRPRPRPTVMPRP was tested, and the “shrunken log2 fold change” value was 0.286. RRIRRRPPRLPRPRPRPTVPPRP was tested, and the “shrunken log2 fold change” value was 0.0694. In the case of RRIRRRPPRLPRPRPRPTWDPRP, the “shrunken log2 fold change” value is reported as 0.19. For RRIRRRPPRLPRPRPRPTWRPRP, the “shrunken log2 fold change” value was 0.667. RRIRRRPPRLPRPRPRPTYGPRP was tested, and the “shrunken log2 fold change” value was 0.0875. In the case of RRIRRRPPRLPRPRPRPTYPPRP, the “shrunken log2 fold change” value is reported as 0.0623. RRIRRRPPRLPRPRPRPVCFPRP was tested, and the “shrunken log2 fold change” value was 0.383. In the case of RRIRRRPPRLPRPRPRPVCYPRP, the “shrunken log2 fold change” value is reported as 0.103. With RRIRRRPPRLPRPRPRPVDIPRP the “shrunken log2 fold change” value was -0.0798. RRIRRRPPRLPRPRPRPVDPPRP was tested, and the “shrunken log2 fold change” value was 0.253. For RRIRRRPPRLPRPRPRPVDWPRP, the “shrunken log2 fold change” value was 0.577. In the case of RRIRRRPPRLPRPRPRPVEIPRP, the “shrunken log2 fold change” value is reported as 0.048. For RRIRRRPPRLPRPRPRPVEMPRP, the “shrunken log2 fold change” value was 0.483. In the case of RRIRRRPPRLPRPRPRPVFGPRP, the “shrunken log2 fold change” value is reported as 0.329. For RRIRRRPPRLPRPRPRPVIGPRP, the “shrunken log2 fold change” value was 0.149. In the case of RRIRRRPPRLPRPRPRPVIPPRP, the “shrunken log2 fold change” value is reported as 0.272. For RRIRRRPPRLPRPRPRPVKGPRP, the “shrunken log2 fold change” value was -0.0795. In the case of RRIRRRPPRLPRPRPRPVLCPRP, the “shrunken log2 fold change” value is reported as 0.569. RRIRRRPPRLPRPRPRPVNFPRP was tested, and the “shrunken log2 fold change” value was -0.0106. RRIRRRPPRLPRPRPRPVRDPRP was tested, and the “shrunken log2 fold change” value was 0.718. In the case of RRIRRRPPRLPRPRPRPVRGPRP, the “shrunken log2 fold change” value is reported as 0.805. RRIRRRPPRLPRPRPRPVRTPRP was tested, and the “shrunken log2 fold change” value was 0.328. RRIRRRPPRLPRPRPRPVSAPRP was tested, and the “shrunken log2 fold change” value was 0.588. In the case of RRIRRRPPRLPRPRPRPVSCPRP, the “shrunken log2 fold change” value is reported as -0.121. RRIRRRPPRLPRPRPRPVSPPRP was tested, and the “shrunken log2 fold change” value was 0.0657. With RRIRRRPPRLPRPRPRPVSQPRP the “shrunken log2 fold change” value was 0.264. For RRIRRRPPRLPRPRPRPVTRPRP, the “shrunken log2 fold change” value was 0.169. RRIRRRPPRLPRPRPRPVVQPRP was tested, and the “shrunken log2 fold change” value was 0.534. For RRIRRRPPRLPRPRPRPVVYPRP, the “shrunken log2 fold change” value was 0.152. For RRIRRRPPRLPRPRPRPVWEPRP, the “shrunken log2 fold change” value was 0.00461. RRIRRRPPRLPRPRPRPVWMPRP was tested, and the “shrunken log2 fold change” value was 0.561. For RRIRRRPPRLPRPRPRPWAQPRP, the “shrunken log2 fold change” value was 0.882. For RRIRRRPPRLPRPRPRPWFMPRP, the “shrunken log2 fold change” value was -0.125. RRIRRRPPRLPRPRPRPWFSPRP was tested, and the “shrunken log2 fold change” value was -0.0902. For RRIRRRPPRLPRPRPRPWGLPRP, the “shrunken log2 fold change” value was -0.222. For RRIRRRPPRLPRPRPRPWIDPRP, the “shrunken log2 fold change” value was -0.0585. In the case of RRIRRRPPRLPRPRPRPWIEPRP, the “shrunken log2 fold change” value is reported as -0.0568. For RRIRRRPPRLPRPRPRPWKCPRP, the “shrunken log2 fold change” value was -0.0487. RRIRRRPPRLPRPRPRPWKKPRP was tested, and the “shrunken log2 fold change” value was -0.0288. For RRIRRRPPRLPRPRPRPWLCPRP, the “shrunken log2 fold change” value was 0.102. With RRIRRRPPRLPRPRPRPWPRPRP the “shrunken log2 fold change” value was 0.349. For RRIRRRPPRLPRPRPRPWQVPRP, the “shrunken log2 fold change” value was 0.0694. With RRIRRRPPRLPRPRPRPWVVPRP the “shrunken log2 fold change” value was -0.0166. In the case of RRIRRRPPRLPRPRPRPWVYPRP, the “shrunken log2 fold change” value is reported as 0.0234. With RRIRRRPPRLPRPRPRPWWHPRP the “shrunken log2 fold change” value was 0.0484. For RRIRRRPPRLPRPRPRPYACPRP, the “shrunken log2 fold change” value was -0.207. In the case of RRIRRRPPRLPRPRPRPYAVPRP, the “shrunken log2 fold change” value is reported as -0.191. For RRIRRRPPRLPRPRPRPYCPPRP, the “shrunken log2 fold change” value was -0.187. For RRIRRRPPRLPRPRPRPYDDPRP, the “shrunken log2 fold change” value was -0.577. For RRIRRRPPRLPRPRPRPYEEPRP, the “shrunken log2 fold change” value was -0.3. RRIRRRPPRLPRPRPRPYELPRP was tested, and the “shrunken log2 fold change” value was -0.297. For RRIRRRPPRLPRPRPRPYEMPRP, the “shrunken log2 fold change” value was -0.0957. With RRIRRRPPRLPRPRPRPYFSPRP the “shrunken log2 fold change” value was -0.122. For RRIRRRPPRLPRPRPRPYGIPRP, the “shrunken log2 fold change” value was -0.161.
